According to US20030232387A1 (Takeda / Millennium, published 2003):
Where “and” joins values, the source holds several entries; their conditions need not be identical. Equal values may be shown once.

B1: mAb 5E4 (IgG1) (antibody, V domains shown)
VH: EVQLVESGGGLVQPGGSLRLSCAASGFTFSNFWMSWVRQAPGKGLEWMANIKQDGSEKYYVDSVKGRFTISRDNAKSSLFLQMNSLRVDDTAVYFCAGDYYDSGSFYWGQGTLVTVSS
VL: EIVLTQSPATLSLSPGERATLSCRASQSVRSNLAWYQQKPGQAPRLLIYDASNRAIGIPARFSGSGSGTDFTLTISSLEPEDFVVYYCQQRSNWPPWTFGQGTKVEIK
notes: Human antibody; also called converted 5E4 (IgG1); antibody produced by CHO 5G4 A1.2C12
B2: mAb 5E4 (antibody, V domains shown)
VH: B1 VH
VL: B1 VL
notes: The variable domains are the same as in m3 and m4
B3: mAb 8D5 (IgG1) (antibody, V domains shown)
VH: QVQLQESGPGLVKPSETLSLTCTVSGGSVSSYYWSWIRQPPGKGLEWIGHIYYSGNTNYNPSLKSRVTISVDTSKNQFSLKLSSVTAADTAVYFCARDRWNYYDSSPGYYYYYGMDVWGQGTTVTVSS
VL: DIQMTQSPSSLSASVGDRVTITCRASQGIRNDLGWYQQKPGKAPKRLIFAASHLQSGVPSRFSGSGSGTEFTLTISSLQPEDFATYYCQQHNSSPFTFGPGTRVDIK
notes: The variable domains are the same either way
B4: mAb 8D5 (antibody, V domains shown)
VH: B3 VH
VL: B3 VL
notes: also called 8D5 IgG2; human mAb 8D5 (IgG2)
B5: mAb 3G6 (IgG1) (antibody, V domains shown)
VH: EVQLVQSGAEVKKPGESLKISCKGSGYSFTSYWIGWVRQMPGKGLEWMGIIYPGDSGPRYSPSFQGQVTISADKSISTAYLQWSSLKASDTAMYYCARLSYTSTWYPYYFDYWGQGTLVTVSS
VL: not shown
notes: Human antibody; also called converted 3G6 (IgG1); antibody produced by CHO 3G6 C1.2D6

Legend:
[1] = molecular target: T1, human αEβ7 integrin expressed on cells (human, UniProt P38570 19-1179; P26010 20-798); test: cell adhesion assay, inhibition of K562 αEβ7 cells binding to immobilised E-cadherin-IgG
T1 construct: also called K562 transfectants that express αEβ7; L1.2 αEβ7 transfectants
T1 sequence (P38570 other isoform, or with tags, fused parts or gaps limits assumed, chain 1 of 2): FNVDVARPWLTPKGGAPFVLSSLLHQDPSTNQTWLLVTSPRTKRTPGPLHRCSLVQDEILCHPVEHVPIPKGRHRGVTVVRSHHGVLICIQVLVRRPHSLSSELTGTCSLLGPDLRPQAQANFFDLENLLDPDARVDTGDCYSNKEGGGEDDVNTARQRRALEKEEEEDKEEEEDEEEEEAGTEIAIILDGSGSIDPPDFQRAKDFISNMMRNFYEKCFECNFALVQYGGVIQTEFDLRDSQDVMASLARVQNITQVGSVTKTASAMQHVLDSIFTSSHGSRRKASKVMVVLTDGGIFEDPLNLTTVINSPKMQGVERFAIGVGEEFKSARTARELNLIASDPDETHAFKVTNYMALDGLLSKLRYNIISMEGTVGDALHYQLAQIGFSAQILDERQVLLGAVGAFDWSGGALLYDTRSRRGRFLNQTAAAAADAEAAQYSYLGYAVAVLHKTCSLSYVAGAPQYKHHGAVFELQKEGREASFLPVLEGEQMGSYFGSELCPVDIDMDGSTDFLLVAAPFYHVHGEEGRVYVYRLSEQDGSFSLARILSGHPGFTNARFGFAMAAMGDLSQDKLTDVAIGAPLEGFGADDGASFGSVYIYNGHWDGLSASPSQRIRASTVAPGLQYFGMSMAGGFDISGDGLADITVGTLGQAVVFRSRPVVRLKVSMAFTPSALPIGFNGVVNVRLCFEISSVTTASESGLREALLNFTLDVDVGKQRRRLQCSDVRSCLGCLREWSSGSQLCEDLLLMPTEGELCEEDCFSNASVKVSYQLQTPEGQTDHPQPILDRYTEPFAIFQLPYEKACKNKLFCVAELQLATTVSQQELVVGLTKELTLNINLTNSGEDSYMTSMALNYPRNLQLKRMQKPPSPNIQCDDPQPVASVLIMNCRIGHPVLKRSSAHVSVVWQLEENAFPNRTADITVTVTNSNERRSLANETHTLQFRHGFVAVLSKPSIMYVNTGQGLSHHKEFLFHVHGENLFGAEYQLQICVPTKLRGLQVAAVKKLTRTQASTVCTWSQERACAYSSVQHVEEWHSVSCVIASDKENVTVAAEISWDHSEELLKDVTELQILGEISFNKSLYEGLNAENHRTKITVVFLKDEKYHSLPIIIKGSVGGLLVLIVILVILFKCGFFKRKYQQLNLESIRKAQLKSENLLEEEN
T1 sequence (P26010 20-798 limits assumed, chain 2 of 2): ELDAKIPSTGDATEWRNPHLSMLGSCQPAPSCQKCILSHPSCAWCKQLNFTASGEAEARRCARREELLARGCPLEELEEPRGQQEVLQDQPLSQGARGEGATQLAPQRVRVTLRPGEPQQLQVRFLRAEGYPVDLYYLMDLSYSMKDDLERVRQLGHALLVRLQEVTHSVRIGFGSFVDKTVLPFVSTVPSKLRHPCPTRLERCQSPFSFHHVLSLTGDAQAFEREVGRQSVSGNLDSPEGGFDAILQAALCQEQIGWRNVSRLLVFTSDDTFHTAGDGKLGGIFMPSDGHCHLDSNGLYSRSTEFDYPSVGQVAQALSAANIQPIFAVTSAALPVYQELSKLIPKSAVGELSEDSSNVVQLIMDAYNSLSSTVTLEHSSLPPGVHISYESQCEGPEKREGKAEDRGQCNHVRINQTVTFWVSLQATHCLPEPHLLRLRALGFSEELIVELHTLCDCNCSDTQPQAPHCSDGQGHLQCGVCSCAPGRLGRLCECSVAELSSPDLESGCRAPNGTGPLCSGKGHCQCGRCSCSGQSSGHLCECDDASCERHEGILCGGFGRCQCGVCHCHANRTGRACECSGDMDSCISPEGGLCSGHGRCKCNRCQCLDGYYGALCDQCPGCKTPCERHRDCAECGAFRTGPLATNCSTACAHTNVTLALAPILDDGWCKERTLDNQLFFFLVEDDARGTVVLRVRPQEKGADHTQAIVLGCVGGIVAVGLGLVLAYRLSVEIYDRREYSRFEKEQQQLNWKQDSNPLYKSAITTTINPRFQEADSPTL
Description: ELISA plates were coated with 100 ng/well E-cadherin-IgG fusion protein in TBS (20 mM Tris, 140 mM NaCl, pH 9)/1 mM CaCl₂ overnight at 4° C. Plates were washed with wash buffer (HBSS/1 mM CaCl₂), and blocked with HBSS/1 mM CaCl₂/2% BSA for one hour at 37° C. After blocking, plates were washed twice with wash buffer. K562 transfectants at log growth stage were collected, washed once in HBSS/0.2% BSA/1 mM CaCl₂/1 mM MgCl₂, and resuspended to 4×10⁶ cells/mL in the same buffer. Cells were labeled with the fluorecent dye BCECF-AM (Molecular Probes, 4 μg/ml final concentration) for 15 minutes at […]. Labeled cells were washed twice, and resuspended in assay buffer (HBSS/0.2% BSA/1 mM CaCl₂/1 mM MgCl₂/1 mM MnCl₂) to 8×10⁵ cells/mL. 50 μl of the cell suspension was added to the E-cadherin-IgG coated well (4×10⁴ cells/well), and mixed with 50 μl assay buffer containing antibodies with desired concentration, or isotype-matched control antibody. The plate was then incubated at room temperature for 1 hour. The fluorescence content in each well was read on a Fluorescent Concentration Analyser (IDEXX, Westbrook, Me.) before and after three washes with HBSS/0.5 mM CaCl₂/0.5 mM MgCl₂/0.5 mM MnCl₂ using a Microplate Autowasher (Bio-Tek instruments, Winooski, Vt.). The Microplate Autowasher was programmed with parameters: 250 μl wash volume, 1× wash cycle, 0 soak time, and aspiration tube depth of 70. The bound cells (after washes) were expressed as a percentage of total input cells (before washes) in each well. Each sample was set up in triplicate wells.

[2] = molecular target: T2, α4β7 integrin expressed on transfected K562 cells (human, UniProt P13612 34-1032; P26010 20-798); test: flow cytometry on K562 α4β7 transfectants
T2 construct: How the α4β7 transfectants were made is not described; also called α4β7 transfectants
T2 sequence (P13612 34-1032 R878Q limits assumed, chain 1 of 2): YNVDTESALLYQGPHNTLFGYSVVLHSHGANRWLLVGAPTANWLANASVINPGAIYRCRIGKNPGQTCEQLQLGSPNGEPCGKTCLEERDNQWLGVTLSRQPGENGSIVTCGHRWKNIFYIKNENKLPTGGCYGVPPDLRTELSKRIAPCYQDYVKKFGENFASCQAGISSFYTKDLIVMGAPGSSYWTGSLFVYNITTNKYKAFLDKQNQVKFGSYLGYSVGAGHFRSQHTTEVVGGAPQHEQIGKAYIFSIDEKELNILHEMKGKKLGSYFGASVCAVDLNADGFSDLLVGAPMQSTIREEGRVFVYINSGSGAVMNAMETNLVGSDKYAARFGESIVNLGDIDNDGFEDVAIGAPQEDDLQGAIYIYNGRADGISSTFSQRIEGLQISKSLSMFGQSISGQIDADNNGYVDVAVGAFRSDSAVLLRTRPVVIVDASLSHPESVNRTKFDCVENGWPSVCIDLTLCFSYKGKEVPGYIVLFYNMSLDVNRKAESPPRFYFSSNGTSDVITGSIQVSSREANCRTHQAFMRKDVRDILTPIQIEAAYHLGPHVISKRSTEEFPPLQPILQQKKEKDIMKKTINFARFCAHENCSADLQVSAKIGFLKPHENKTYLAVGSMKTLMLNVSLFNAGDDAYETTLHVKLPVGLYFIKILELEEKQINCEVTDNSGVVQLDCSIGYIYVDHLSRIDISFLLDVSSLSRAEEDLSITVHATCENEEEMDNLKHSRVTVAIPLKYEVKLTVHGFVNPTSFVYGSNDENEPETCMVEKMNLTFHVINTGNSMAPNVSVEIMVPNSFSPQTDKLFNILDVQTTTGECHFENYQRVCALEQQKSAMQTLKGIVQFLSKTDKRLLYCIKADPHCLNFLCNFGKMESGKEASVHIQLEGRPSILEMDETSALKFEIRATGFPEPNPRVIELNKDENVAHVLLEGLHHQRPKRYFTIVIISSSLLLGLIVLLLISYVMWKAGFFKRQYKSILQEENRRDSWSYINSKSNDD
T2 sequence (P26010 20-798 limits assumed, chain 2 of 2): as the sequence (P26010 20-798 limits assumed, chain 2 of 2) above

[3] = molecular target: mutant αEβ7 integrin, αE F298A, on transfected K562 cells (human, UniProt P38570 19-1179; P26010 20-798, F298A); test: flow cytometry on K562 cells expressing αEβ7 with αE F298A
mutant αEβ7 integrin, αE F298A, on transfected K562 cells, sequence (P38570 other isoform, or with tags, fused parts or gaps F298A | F298A F298A, chain 1 of 2): as the sequence (P38570 other isoform, or with tags, fused parts or gaps limits assumed, chain 1 of 2) above, with F298A counted along it
mutant αEβ7 integrin, αE F298A, on transfected K562 cells, sequence (P26010 20-798, chain 2 of 2): as the sequence (P26010 20-798 limits assumed, chain 2 of 2) above
Description: The fine specificity of mAb 5E4 was determined using a panel of transfected K562 cells that expressed various mutant αEβ7 integrins and detecting antibody binding to the transfectants by flow cytometry. The mutants proteins and methods used have been previously described in Higgins, J. M. G. et al., J. Biol. Chem. 275:25652-25664 (2000). The mutant αEβ7 integrins used contained the following mutations in the αE chain: R159S/R160S; ΔE163-E180; ΔE176; D190A; G193A; D199A; R202A/D205A; G230A/V231A; D240A; F298A; P311H/E345A/T346A; E325A; and Y354W. (See, Higgins, J. M. G. et al., J. Biol. Chem. 275:25652-25664 (2000).)
The fine specificity of mAb 5E4 was examined using transfected K562 cells that expressed αEβ7 integrin or mutated version of αEβ7 integrins, and antibody binding was detected by flow cytometry. Antibody binding was inhibited by deletion of amino acid residues 163-180 (ΔE163-E180; amino acid residues 163-180 of SEQ ID NO: 2), which are in the X domain of integrin αE chain, and was essentially abrogated by mutation of amino acid residue 298 (amino acid residue 298 of SEQ ID NO:2), which is in the I-domain, from Phenylalanine to Alanine (F298A).

Binder | IC50 [1] | binding result [2] | binding result [3]
B1 | ~1.29 µg/mL and ~8.5 nM | no binding | –
B2 | – | – | no binding
B3 | ~0.715 µg/mL and ~4.7 nM | – | –
B4 | – | no binding | –
B5 | ~2.04 µg/mL and ~13.4 nM | no binding | –
